Experimental data: patent publication US20090220587A1
* marks the point of attachment. X1 = 1,2‑dioleoyl‑sn‑glycero‑3‑succinate, CCCCCCCC/C=C\CCCCCCCC(=O)OC[C@H](COC(=O)CCC(=O)*)OC(=O)CCCCCCC/C=C\CCCCCCCC

Key:
[1] = biological target: endothelin receptors on rat peritoneal mast cells (RBL) (rat); assay: cell-based or functional assay
[2] = biological target: endothelin receptors on A549 human lung epithelial carcinoma cells (human); assay: cell-based or functional assay

- reduction of endothelin receptors after pre-exposure to unlabeled liposomes [1]: 50%
- recovery of endothelin receptors after internalization [2]: 100%
- reduction of endothelin receptors after pre-exposure to unlabeled liposomes [2]: 50%
B1: liposome complex comprising the conjugated endothelin peptide ligand 1,2-dioleoyl-sn-glycero-3-succinate-Cys-His-Leu-Asp-Ile-Ile-Trp-COOH (peptide)
peptide: X1-CHLDIIW-OH
modifications: not fully specified; printed as 1,2-dioleoyl-sn-glycero-3-succinate-Cys-His-Leu-Asp-Ile-Ile-Trp-COOH; also: lipid conjugate incorporated in liposomes
